Measurements taken from paper PMC3963495.

Target: microtubules (polymer of tubulin)
Experiment: single-molecule TIRF microscopy on microtubules

microtubules (polymer of tubulin), sequence (P68363 whole entry, chain 1 of 2): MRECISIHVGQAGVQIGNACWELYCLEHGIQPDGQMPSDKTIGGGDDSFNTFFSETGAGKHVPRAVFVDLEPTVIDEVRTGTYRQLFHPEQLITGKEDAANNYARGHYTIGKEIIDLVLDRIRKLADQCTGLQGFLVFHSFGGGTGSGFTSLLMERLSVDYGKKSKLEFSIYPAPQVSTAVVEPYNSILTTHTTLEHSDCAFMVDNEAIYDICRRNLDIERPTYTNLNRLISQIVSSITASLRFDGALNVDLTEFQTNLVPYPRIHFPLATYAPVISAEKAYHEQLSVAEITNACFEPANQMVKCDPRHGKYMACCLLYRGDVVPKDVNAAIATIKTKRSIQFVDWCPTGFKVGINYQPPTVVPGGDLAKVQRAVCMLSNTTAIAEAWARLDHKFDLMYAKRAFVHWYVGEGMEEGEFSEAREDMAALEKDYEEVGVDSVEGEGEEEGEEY
microtubules (polymer of tubulin), sequence (A8K068 whole entry, chain 2 of 2, further chain): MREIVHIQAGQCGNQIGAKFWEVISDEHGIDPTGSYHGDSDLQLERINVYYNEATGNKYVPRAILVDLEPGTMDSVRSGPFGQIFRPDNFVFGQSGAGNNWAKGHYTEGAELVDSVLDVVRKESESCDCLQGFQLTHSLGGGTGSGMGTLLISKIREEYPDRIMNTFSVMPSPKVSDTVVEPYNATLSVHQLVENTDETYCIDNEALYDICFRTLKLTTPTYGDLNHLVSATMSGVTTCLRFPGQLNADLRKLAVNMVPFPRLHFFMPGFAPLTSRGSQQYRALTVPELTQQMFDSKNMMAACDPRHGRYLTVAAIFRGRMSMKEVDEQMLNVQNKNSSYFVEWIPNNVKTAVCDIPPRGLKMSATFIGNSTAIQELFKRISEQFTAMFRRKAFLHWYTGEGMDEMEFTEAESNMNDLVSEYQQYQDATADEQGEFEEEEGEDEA

dwell time: 53 ms | mean dwell time: 0.054 s
Substance: EB1_(FKBP) (human EB1 fused at its C-terminus to FKBP)
